For assay [1], the system named is mutated Rad30 PIP peptide. The assay can be described thus: Yeast surface display of PCNA, PIP peptide binding by flow cytometry. The settings on record: peptide with the two conserved phenylalanines mutated to alanine. As to the method: (§1) Briefly, EBY100 transformed with plasmid pCTCON-PCNA were grown in SDCAA media to logarithmic phase and 2×10^6 of cells were washed, resuspended in SGCAA induction media, and grown at 20°C with shaking for an additional 18 h. Induced cells (1×10^6) were collected by centrifugation, washed with PBSF (PBS+ 1 g/L BSA), and incubated for 1 h at 25°C with mouse α-Myc antibodies (Santa Cruz Biotechnology, 1 µl/50 µl PBSF) and 100–400 µM of biotinylated PIP peptide (Peptron, see Figure S1 for peptide sequences). […] The labeled cells were washed, resuspended with PBSF, and analyzed by flow cytometry (FACS Calibur, BD).
(§2) Supplementary file pbio.1000507.s003.pdf: Figure S3 Yeast surface display of PCNA. […] Expression is detected through fluorescent antibody binding to the c-Myc epitope tag (light blue) while binding of the biotinylated PIP peptide (orange) is detected using fluorescently-labeled streptavidin (green). […] The specificity of PCNA binding for PIP peptides was detected following incubation with biotinylated PIP peptide derived from Rad30 (B and D) and mutated Rad30 in which the two conserved phenylalanine residues of the PIP peptide are mutated to alanine (C), followed by incubation with allophycocyanin (APC)-labeled streptavidin (y-axis). […]
For orientation: A flow cytometer gives signals particle by particle.

For assay [2], the target named is T1, pol30-79 (yeast, UniProt P15873 1-258, IDCL DIDADFLKIEEL to DIDADFAKAEEL).
T1 construct: PCNA (POL30), yeast; the changes are then L126A and I128A; also called PCNA79; source: yeast two-hybrid fusion (pAD-GAL4, strain YRG2)
T1 sequence: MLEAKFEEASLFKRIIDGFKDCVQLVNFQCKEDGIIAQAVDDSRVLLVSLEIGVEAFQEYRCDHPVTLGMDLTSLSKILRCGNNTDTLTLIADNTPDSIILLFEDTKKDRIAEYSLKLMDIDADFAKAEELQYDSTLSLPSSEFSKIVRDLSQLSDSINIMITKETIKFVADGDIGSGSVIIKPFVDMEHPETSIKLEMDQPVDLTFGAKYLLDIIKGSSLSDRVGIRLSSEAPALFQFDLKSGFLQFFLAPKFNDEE
The assay can be described thus: two-hybrid; quantitative Y2H: generation time of the YRG2 strains in liquid SC-Leu-Trp-His, given relative to cells expressing WT PCNA; average of at least 3 experiments. The settings on record: partners not purified.

In assay [3] the target is T2, pol30-Rad27E6 (yeast, UniProt P15873 1-258, IDCL DIDADFLKIEEL to DGDYDILKIREL).
T2 construct: PCNA (POL30), yeast; source: yeast two-hybrid fusion (pAD-GAL4, strain YRG2)
T2 sequence: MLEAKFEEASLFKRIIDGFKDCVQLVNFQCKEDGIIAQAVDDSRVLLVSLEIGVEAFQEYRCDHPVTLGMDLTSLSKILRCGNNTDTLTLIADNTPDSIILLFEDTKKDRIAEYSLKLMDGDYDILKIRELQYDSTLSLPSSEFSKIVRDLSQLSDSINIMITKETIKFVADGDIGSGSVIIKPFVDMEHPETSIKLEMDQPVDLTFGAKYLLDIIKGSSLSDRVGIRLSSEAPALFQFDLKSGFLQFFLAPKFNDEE
The assay is described as above. The settings on record: partners not purified.

Assay [4] deals with T3, pol30-Rad27E31 (yeast, UniProt P15873 1-258, IDCL DIDADFLKIEEL to DGDYDVLKIREL).
T3 construct: PCNA (POL30), yeast; source: yeast two-hybrid fusion (pAD-GAL4, strain YRG2)
T3 sequence: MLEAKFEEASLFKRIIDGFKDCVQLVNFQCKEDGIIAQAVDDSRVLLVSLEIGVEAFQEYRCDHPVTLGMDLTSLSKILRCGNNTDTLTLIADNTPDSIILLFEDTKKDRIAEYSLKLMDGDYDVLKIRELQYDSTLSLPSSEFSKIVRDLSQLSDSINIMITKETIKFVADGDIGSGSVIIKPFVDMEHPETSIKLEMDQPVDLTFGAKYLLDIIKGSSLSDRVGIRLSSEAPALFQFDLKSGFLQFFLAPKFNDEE
Described as above. Particulars: partners not purified.

The target in assay [5] is T4, pol30-Rad27L1 (yeast, UniProt P15873 1-258, IDCL DIDADFLKIEEL to D––VDILKIGEL).
T4 construct: PCNA (POL30), yeast; two residues after the first aspartic acid of the IDCL are deleted; source: yeast two-hybrid fusion (pAD-GAL4, strain YRG2)
T4 sequence: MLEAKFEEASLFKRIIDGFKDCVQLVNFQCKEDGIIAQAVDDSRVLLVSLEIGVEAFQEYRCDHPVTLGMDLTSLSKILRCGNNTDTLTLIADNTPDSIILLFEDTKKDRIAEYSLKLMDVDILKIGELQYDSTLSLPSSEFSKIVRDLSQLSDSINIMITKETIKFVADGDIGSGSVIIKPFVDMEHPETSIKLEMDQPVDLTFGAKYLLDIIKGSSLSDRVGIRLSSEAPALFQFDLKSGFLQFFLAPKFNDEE
Described as above. Particulars: partners not purified.

The target in assay [6] is T5, pol30-Msh6E2 (yeast, UniProt P15873 1-258, IDCL DIDADFLKIEEL to DYDRDMLKISEL).
T5 construct: PCNA (POL30), yeast; source: yeast two-hybrid fusion (pAD-GAL4, strain YRG2)
T5 sequence: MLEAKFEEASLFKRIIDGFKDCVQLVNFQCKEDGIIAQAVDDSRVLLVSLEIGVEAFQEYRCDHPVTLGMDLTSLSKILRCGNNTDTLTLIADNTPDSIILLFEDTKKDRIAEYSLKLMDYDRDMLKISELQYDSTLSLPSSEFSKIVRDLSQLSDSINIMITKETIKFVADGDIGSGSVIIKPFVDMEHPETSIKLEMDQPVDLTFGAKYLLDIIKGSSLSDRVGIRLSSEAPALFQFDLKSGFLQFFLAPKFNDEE
The assay is described as follows: two-hybrid; pAD-GAL4-PCNA WT or mutant (called bait) and pBD-GAL4-partner (called prey) in strain YRG2; 10-fold serial dilutions spotted on SC-Leu-Trp-His plates, 30°C, 3 d; growth similar to WT PCNA is denoted 1. The settings on record: partners not purified.

Assay [7] concerns Rad30 PIP peptide. The assay is described as follows: Yeast surface display of PCNA, PIP peptide binding by flow cytometry. Particulars: biotinylated peptide, APC-streptavidin, compared with WT PCNA / Rad30 PIP peptide. The protocol:
as §1, §2

On to “POL30: wild-type yeast PCNA (POL30), IDCL sequence DIDADFLKIEEL”, for which, in assay [1], the “binding to a mutated Rad30 PIP peptide (yeast surface display)” value is recorded as “dramatic reduction in binding affinity”.

B1: Rad27 (natural protein, yeast, UniProt P26793 1-382, looked up)
chain: MGIKGLNAIISEHVPSAIRKSDIKSFFGRKVAIDASMSLYQFLIAVRQQDGGQLTNEAGETTSHLMGMFYRTLRMIDNGIKPCYVFDGKPPDLKSHELTKRSSRRVETEKKLAEATTELEKMKQERRLVKVSKEHNEEAQKLLGLMGIPYIIAPTEAEAQCAELAKKGKVYAAASEDMDTLCYRTPFLLRHLTFSEAKKEPIHEIDTELVLRGLDLTIEQFVDLCIMLGCDYCESIRGVGPVTALKLIKTHGSIEKIVEFIESGESNNTKWKIPEDWPYKQARMLFLDPEVIDGNEINLKWSPPKEKELIEYLCDDKKFSEERVKSGISRLKKGLKSGIQGRLDGFFQVVPKTKEQLAAAAKRAQENKKLNKNKNKVTKGRR
notes: Rad27 (endonuclease), yeast; also called pBD-Rad27; source: yeast two-hybrid fusion (pBD-GAL4, strain YRG2)
With B1, the “fold change in affinity relative to WT PCNA (Y2H generation time)” value is 0.5 fold in assay [2], 1.5 fold in assay [3], 1.5 fold in assay [4] and 1.7 fold in assay [5]. For the same molecule, the “fold change in affinity relative to WT PCNA (Y2H)” value in assay [6] stood at 1.3 fold.

B2: pol30-79: previously studied PCNA mutant with decreased partner binding, IDCL sequence DIDADFAKAEEL (protein)
chain: MLEAKFEEASLFKRIIDGFKDCVQLVNFQCKEDGIIAQAVDDSRVLLVSLEIGVEAFQEYRCDHPVTLGMDLTSLSKILRCGNNTDTLTLIADNTPDSIILLFEDTKKDRIAEYSLKLMDIDADFAKAEELQYDSTLSLPSSEFSKIVRDLSQLSDSINIMITKETIKFVADGDIGSGSVIIKPFVDMEHPETSIKLEMDQPVDLTFGAKYLLDIIKGSSLSDRVGIRLSSEAPALFQFDLKSGFLQFFLAPKFNDEE
modifications: left off: Gal4 activation domain, end not stated, kept
For the molecule B2, the “binding to the Rad30 PIP peptide (yeast surface display)” value in assay [7] is reported as “dramatic reduction in binding affinity”.

(Values after publication PMC2953525, “Subtle Alterations in PCNA-Partner Interactions Severely Impair DNA Replication and Repair” (PLoS Biology, 2010).)
